Reference: the supplement of paper PMC10567573

B1: SASS6 (parent)
chain: QKELQDVGQSLRIKEQEVCKLQEQ

Variants of: B1
Assay: protein stability index of a GFP-peptide fusion (GPS, HEK-293T) (PSI 1-6); higher = more stable
Conditions: c terminus: a fixed tail appended
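Also: lentivirally expressed fusions sorted by FACS into six bins by GFP to DsRed ratio, PSI derived from sequencing read proportions per bin multiplied by bin number.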

Row | Variant | protein stability index
1 | QKELQDVGQSLRIKEQEVVKLQEQ [C19V] | 5.25
2 | QKELQDVGQSLRIKEQEVTKLQEQ [C19T] | 5.31
3 | QKELQDVGQSLRIKEQEVHKLQEQ [C19H] | 5.61
4 | QKELQDVGQSLRIKEQEVIKLQEQ [C19I] | 4.35
5 | QKELQDVGQSLRIKEQEVMKLQEQ [C19M] | 5.34
6 | QKELQDVGQSLRIKEQEVDKLQEQ [C19D] | 5.56
7 | QKELQDVGQSLRIKEQEVRKLQEQ [C19R] | 5.23
8 | QKELQDVGQSLRIKEQEVQKLQEQ [C19Q] | 5.61
9 | QKELQDVGQSLRIKEQEVEKLQEQ [C19E] | 5.78
10 | QKELQDVGQSLRIKEQEVFKLQEQ [C19F] | 5.35
11 | QKELQDVGQSLRIKEQEVWKLQEQ [C19W] | 4.59
12 | QKELQDVGQSLRIKEQEVPKLQEQ [C19P] | 4.9
13 | QKELQDVGQSLRIKEQEVKKLQEQ [C19K] | 4.88
14 | QKELQDVGQSLRIKEQEVSKLQEQ [C19S] | 5.53
15 | QKELQDVGQSLRIKEQEVYKLQEQ [C19Y] | 5.19
16 | QKELQDVGQSLRIKEQEVCRLQEQ [K20R] | 4.82
17 | QKELQDVGQSLRIKEQEVCTLQEQ [K20T] | 5.09
18 | QKELQDVGQSLRIKEQEVCGLQEQ [K20G] | 5.36
19 | QKELQDVGQSLRIKEQEVCILQEQ [K20I] | 5.15
20 | QKELQDVGQSLRIKEQEVCMLQEQ [K20M] | 5.24
21 | QKELQDVGQSLRIKEQEVCPLQEQ [K20P] | 4.98
22 | QKELQDVGQSLRIKEQEVCNLQEQ [K20N] | 5.12
23 | QKELQDVGQSLRIKEQEVCSLQEQ [K20S] | 5.55
24 | QKELQDVGQSLRIKEQEVCFLQEQ [K20F] | 4.31

Row | Variant | protein stability index
25 | QKELQDVGQSLRIKEQEVCVLQEQ [K20V] | 5.26
26 | QKELQDVGQSLRIKEQEVCYLQEQ [K20Y] | 4.66
27 | QKELQDVGQSLRIKEQEVCLLQEQ [K20L] | 5.02
28 | QKELQDVGQSLRIKEQEVCCLQEQ [K20C] | 5.11
29 | QKELQDVGQSLRIKEQEVCHLQEQ [K20H] | 4.49
30 | QKELQDVGQSLRIKEQEVCKHQEQ [L21H] | 5.57
31 | QKELQDVGQSLRIKEQEVCKTQEQ [L21T] | 5.68
32 | QKELQDVGQSLRIKEQEVCKCQEQ [L21C] | 5.73
33 | QKELQDVGQSLRIKEQEVCKAQEQ [L21A] | 5.02
34 | QKELQDVGQSLRIKEQEVCKYQEQ [L21Y] | 5.38
35 | QKELQDVGQSLRIKEQEVCKFQEQ [L21F] | 5.14
36 | QKELQDVGQSLRIKEQEVCKDQEQ [L21D] | 5.84
37 | QKELQDVGQSLRIKEQEVCKEQEQ [L21E] | 5.78
38 | QKELQDVGQSLRIKEQEVCKKQEQ [L21K] | 5.81
39 | QKELQDVGQSLRIKEQEVCKNQEQ [L21N] | 5.68
40 | QKELQDVGQSLRIKEQEVCKPQEQ [L21P] | 5.4
41 | QKELQDVGQSLRIKEQEVCKSQEQ [L21S] | 5.27
42 | QKELQDVGQSLRIKEQEVCKMQEQ [L21M] | 5.03
43 | QKELQDVGQSLRIKEQEVCKQQEQ [L21Q] | 5.42
44 | QKELQDVGQSLRIKEQEVCKGQEQ [L21G] | 5.9
45 | QKELQDVGQSLRIKEQEVCKWQEQ [L21W] | 4.92
46 | QKELQDVGQSLRIKEQEVCKIQEQ [L21I] | 5.43
47 | QKELQDVGQSLRIKEQEVCKLQRQ [E23R] | 4.76
48 | QKELQDVGQSLRIKEQEVCKLQIQ [E23I] | 4.4

Row | Variant | protein stability index
49 | QKELQDVGQSLRIKEQEVCKLQTQ [E23T] | 4.99
50 | QKELQDVGQSLRIKEQEVCKLQHQ [E23H] | 5.02
51 | QKELQDVGQSLRIKEQEVCKLQDQ [E23D] | 5.27
52 | QKELQDVGQSLRIKEQEVCKLQLQ [E23L] | 4.69
53 | QKELQDVGQSLRIKEQEVCKLQPQ [E23P] | 4.49
54 | QKELQDVGQSLRIKEQEVCKLQCQ [E23C] | 4.29
55 | QKELQDVGQSLRIKEQEVCKLQGQ [E23G] | 5.58
56 | QKELQDVGQSLRIKEQEVCKLQFQ [E23F] | 4.52
57 | QKELQDVGQSLRIKEQEVCKLQNQ [E23N] | 4.5
58 | QKELQDVGQSLRIKEQEVCKLQMQ [E23M] | 4.24
59 | QKELQDVGQSLRIKEQEVCKLQQQ [E23Q] | 4.71
60 | QKELQDVGQSLRIKEQEVCKLQKQ [E23K] | 4.89
61 | QKELQDVGQSLRIKEQEVCKLQSQ [E23S] | 4.82
62 | QKELQDVGQSLRIKEQEVCKLKEQ [Q22K] | 5.25
63 | QKELQDVGQSLRIKEQEVCKLYEQ [Q22Y] | 4.67
64 | QKELQDVGQSLRIKEQEVCKLCEQ [Q22C] | 4.34
65 | QKELQDVGQSLRIKEQEVCKLHEQ [Q22H] | 4.79
66 | QKELQDVGQSLRIKEQEVCKLEEQ [Q22E] | 5.4
67 | QKELQDVGQSLRIKEQEVCKLTEQ [Q22T] | 5.06
68 | QKELQDVGQSLRIKEQEVCKLNEQ [Q22N] | 5.11
69 | QKELQDVGQSLRIKEQEVCKLFEQ [Q22F] | 4.5
70 | QKELQDVGQSLRIKEQEVCKLREQ [Q22R] | 5.07
71 | QKELQDVGQSLRIKEQEVCKLWEQ [Q22W] | 4.83
72 | QKELQDVGQSLRIKEQEVCKLLEQ [Q22L] | 4.44

Row | Variant | protein stability index
73 | QKELQDVGQSLRIKEQEVCKLPEQ [Q22P] | 5.27
74 | QKELQDVGQSLRIKEQEVCKLVEQ [Q22V] | 4.4
75 | QKELQDVGQSLRIKEQEVCKLMEQ [Q22M] | 4.88
76 | QKELQDVGQSLRIKEQEVCKLIEQ [Q22I] | 4.69
77 | QKELQDVGQSLRIKEQEVCKLDEQ [Q22D] | 5.58
78 | QKELQDVGQSLREKEQEVCKLQEQ [I13E] | 5.34
79 | QKELQDVGQSLRFKEQEVCKLQEQ [I13F] | 4.85
80 | QKELQDVGQSLRCKEQEVCKLQEQ [I13C] | 3.3
81 | QKELQDVGQSLRSKEQEVCKLQEQ [I13S] | 5.45
82 | QKELQDVGQSLRKKEQEVCKLQEQ [I13K] | 5.29
83 | QKELQDVGQSLRNKEQEVCKLQEQ [I13N] | 5.31
84 | QKELQDVGQSLRYKEQEVCKLQEQ [I13Y] | 4.95
85 | QKELQDVGQSLRMKEQEVCKLQEQ [I13M] | 5.64
86 | QKELQDVGQSLRLKEQEVCKLQEQ [I13L] | 5.57
87 | QKELQDVGQSLRTKEQEVCKLQEQ [I13T] | 5.13
88 | QKELQDVGQSLRHKEQEVCKLQEQ [I13H] | 4.64
89 | QKELQDVGQSLRVKEQEVCKLQEQ [I13V] | 5.44
90 | QKELQDVGQSLRAKEQEVCKLQEQ [I13A] | 4.69
91 | QKELQDVGQSLRPKEQEVCKLQEQ [I13P] | 5.38
92 | QKELQDVGQSLRWKEQEVCKLQEQ [I13W] | 4.57
93 | QKELQDVGQSLRDKEQEVCKLQEQ [I13D] | 5.72
94 | QKELQDVGQSLRRKEQEVCKLQEQ [I13R] | 5.7
